According to the Human Domainome abundance scans (Beltran et al. 2025):
± gives the uncertainty stated by the source.

B1: Connector enhancer of kinase suppressor of ras 2, residues 9 to 71; numbered along this chain, Q8WXI2 (parent)
chain: SKWSPSQVVDWMKGLDDCLQQYIKNFEREKISGDQLLRITHQELEDLGVSRIGHQELILEAVD

Variants of: B1
Assay: abundance fitness (aPCA) (normalised: wild type 0, dead -1); higher = more abundant; growth selection in yeast, the domain comes from the species named
Conditions: Homo sapiens

Variant	abundance fitness
R51P	-0.021 ± 0.036
R51D	0.081 ± 0.043
R51E	0.088 ± 0.044
R51A	0.031 ± 0.026
Q42P	-0.254 ± 0.035
Q42M	-0.319 ± 0.05
Q42I	-0.558 ± 0.086
Q42F	-0.618 ± 0.077
Q42A	-0.083 ± 0.017
Q42G	-0.193 ± 0.028
Q42L	-0.378 ± 0.025
Q42S	-0.128 ± 0.021
Q42R	-0.03 ± 0.024
Q42Y	-0.848 ± 0.1
Q42D	-0.348 ± 0.046
Q42W	-0.767 ± 0.047
Q42V	-0.258 ± 0.024
Q42K	0.002 ± 0.051
Q42N	-0.228 ± 0.044
Q42C	-0.395 ± 0.042
Q42E	-0.119 ± 0.034
Q42T	-0.118 ± 0.028
I39N	-0.67 ± 0.053
I39D	-0.569 ± 0.075

Variant	abundance fitness
I39F	-0.254 ± 0.045
I39Q	-0.653 ± 0.032
I39L	0.01 ± 0.026
I39T	-0.455 ± 0.042
I39C	-0.416 ± 0.052
I39R	-0.717 ± 0.03
I39A	-0.424 ± 0.04
I39H	-0.65 ± 0.071
I39K	-0.576 ± 0.047
I39E	-0.607 ± 0.048
I39W	-0.737 ± 0.04
I39Y	-0.632 ± 0.064
I39S	-0.537 ± 0.037
I39G	-0.699 ± 0.034
I39V	-0.22 ± 0.03
I39M	0.009 ± 0.034
H41D	-0.229 ± 0.052
H41Y	-0.075 ± 0.049
H41L	-0.234 ± 0.027
H41V	-0.06 ± 0.03
H41Q	-0.037 ± 0.033
H41C	-0.157 ± 0.054
H41K	0.029 ± 0.034
H41E	-0.076 ± 0.035

Variant	abundance fitness
H41N	-0.097 ± 0.04
H41P	-0.002 ± 0.033
H41M	-0.125 ± 0.047
H41T	-0.031 ± 0.033
H41G	-0.077 ± 0.025
H41S	-0.007 ± 0.027
H41I	-0.184 ± 0.051
I52F	-0.071 ± 0.052
I52A	-0.011 ± 0.027
I52K	0.048 ± 0.035
I52T	0.017 ± 0.035
I52Y	-0.067 ± 0.041
I52M	-0.086 ± 0.04
I52N	-0.139 ± 0.057
I52E	-0.058 ± 0.042
I52R	0.065 ± 0.024
I52V	0.002 ± 0.038
I52P	0.038 ± 0.034
I52G	-0.074 ± 0.025
I52W	-0.174 ± 0.039
I52D	-0.123 ± 0.04
I52H	-0.047 ± 0.06
H54Q	-0.944 ± 0.093
H54A	-0.727 ± 0.036

Variant	abundance fitness
H54G	-0.887 ± 0.056
H54F	-0.886 ± 0.1
H54C	-0.835 ± 0.07
H54E	-0.412 ± 0.053
H54K	-0.843 ± 0.052
H54I	-1.15 ± 0.14
H54M	-0.819 ± 0.052
H54N	-0.65 ± 0.036
S50P	-0.391 ± 0.088
S50F	-0.139 ± 0.058
S50T	0.039 ± 0.055
S50H	0.239 ± 0.17
S50N	-0.471 ± 0.34
S50R	-0.05 ± 0.076
S50E	0.024 ± 0.12
S50D	-0.172 ± 0.1
S50I	-0.571 ± 0.26
S50G	-0.258 ± 0.09
S50K	0.278 ± 0.29
S50A	-0.125 ± 0.15
S50Y	-0.05 ± 0.17
S50L	-0.072 ± 0.033
S50C	-0.068 ± 0.067
S50M	-0.09 ± 0.1

Variant	abundance fitness
E45H	-0.04 ± 0.022
E45Q	-0.007 ± 0.047
E45D	-0.167 ± 0.056
E45F	-0.033 ± 0.043
E45W	-0.193 ± 0.027
E45M	-0.066 ± 0.033
E45K	0.021 ± 0.042
E45C	-0.018 ± 0.031
E45T	-0.034 ± 0.03
E45G	-0.12 ± 0.029
E45R	-0.017 ± 0.021
E45P	-0.784 ± 0.052
E45L	-0.045 ± 0.026
E45I	-0.076 ± 0.035
E45N	-0.015 ± 0.039
E45S	-0.017 ± 0.02
E45V	-0.118 ± 0.028
D46R	0.027 ± 0.023
D46H	0.008 ± 0.039
D46N	-0.006 ± 0.036
D46F	-0.097 ± 0.035
D46K	0.072 ± 0.035
D46A	-0.054 ± 0.031
D46Q	-0.032 ± 0.048

Variant	abundance fitness
D46G	-0.075 ± 0.026
D46W	-0.192 ± 0.034
D46E	-0.013 ± 0.032
D46V	-0.11 ± 0.032
D46M	-0.042 ± 0.04
D46P	-0.813 ± 0.076
D46S	-0.037 ± 0.024
D46C	-0.188 ± 0.044
D46T	-0.041 ± 0.031
D46Y	-0.194 ± 0.04
D46I	-0.178 ± 0.044
L37D	-0.254 ± 0.031
L37K	-0.132 ± 0.047
L37R	-0.145 ± 0.023
L37E	-0.193 ± 0.031
L37Y	-0.28 ± 0.043
L37G	-0.168 ± 0.028
L37Q	-0.151 ± 0.038
L37M	0.012 ± 0.049
L37F	-0.239 ± 0.052
L37W	-0.349 ± 0.045
L37S	-0.072 ± 0.027
L37A	-0.073 ± 0.023
L37P	-0.407 ± 0.041

Variant	abundance fitness
L37N	-0.154 ± 0.047
L37C	-0.108 ± 0.041
L37H	-0.158 ± 0.071
L37V	-0.078 ± 0.025
L37T	-0.155 ± 0.037
L44R	-0.753 ± 0.036
L44M	-0.399 ± 0.05
L44K	-0.791 ± 0.068
L44E	-0.82 ± 0.067
L44H	-0.914 ± 0.089
L44Y	-0.9 ± 0.086
L44Q	-0.932 ± 0.12
L44F	-0.722 ± 0.07
L44T	-0.781 ± 0.05
L44D	-0.657 ± 0.065
L44S	-0.784 ± 0.039
L44V	-0.79 ± 0.045
L44W	-0.964 ± 0.06
L44G	-0.804 ± 0.047
L44P	-0.821 ± 0.073
L44N	-0.87 ± 0.091
L44I	-0.982 ± 0.23
L44A	-0.814 ± 0.046
